Experimental data from patent US20190367631A1 (Regeneron, published 2019).
Changes are numbered by the printed parent chain. Names may count otherwise.

Key:
[1] = biological target: T1, human MSR1 extracellular domain expressed with a N-terminal nonahistidine tag (human, UniProt P21757 77-451); assay: competition ELISA, plate-coated His9-hMSR1; 100 nM antibody, competitor ligand Ac-LDL
T1 construct: extracellular domain; also called His9-hMSR1; His-hMSR1
T1 sequence: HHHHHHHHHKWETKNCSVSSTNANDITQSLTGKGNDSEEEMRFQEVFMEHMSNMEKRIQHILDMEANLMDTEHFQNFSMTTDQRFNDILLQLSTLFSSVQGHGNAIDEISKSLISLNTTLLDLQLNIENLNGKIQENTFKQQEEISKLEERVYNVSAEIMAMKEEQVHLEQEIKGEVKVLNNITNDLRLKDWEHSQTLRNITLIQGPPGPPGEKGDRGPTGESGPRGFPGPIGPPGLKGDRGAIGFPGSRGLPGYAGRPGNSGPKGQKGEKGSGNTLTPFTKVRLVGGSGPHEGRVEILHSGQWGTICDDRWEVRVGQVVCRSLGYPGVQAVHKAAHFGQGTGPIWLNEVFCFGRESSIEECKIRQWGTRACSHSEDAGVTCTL
Description: (§1) Buffer alone was also added to wells on each coat. […] This assay was conducted in four different assay runs.
(§2) Data analysis was performed using a sigmoidal dose-response model within Prism™ software (GraphPad).

[2] = biological target: T1, human MSR1 extracellular domain …; assay: competition ELISA, plate-coated His9-hMSR1; 300 nM antibody, competitor ligand biot-AGE-BSA
Description: as §1, §2

[3] = biological target: T1, human MSR1 extracellular domain …; assay: competition ELISA, plate-coated His9-hMSR1; 500 nM antibody, competitor ligand 10 nM Ox-LDL
Description: as §1, §2

[4] = biological target: T1, human MSR1 extracellular domain …; assay: competition ELISA, plate-coated His9-hMSR1; 500 nM antibody, competitor ligand 5 nM Ox-LDL
Description: as §1, §2

[5] = biological target: T2, monkey MSR1 extracellular domain expressed with a N-terminal hexahistidine-myc-myc tag (HMM-mfMSR1) (monkey (Macaca fascicularis)); assay: SPR Biacore, 25 C, antibody captured;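 also: rates from 1:1 fit with mass transport limitation of real-time sensorgrams, HEPES-buffered saline with EDTA and Tween-20 at pH 7.4, KD and t½ derived from the kinetic rates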
T2 chain: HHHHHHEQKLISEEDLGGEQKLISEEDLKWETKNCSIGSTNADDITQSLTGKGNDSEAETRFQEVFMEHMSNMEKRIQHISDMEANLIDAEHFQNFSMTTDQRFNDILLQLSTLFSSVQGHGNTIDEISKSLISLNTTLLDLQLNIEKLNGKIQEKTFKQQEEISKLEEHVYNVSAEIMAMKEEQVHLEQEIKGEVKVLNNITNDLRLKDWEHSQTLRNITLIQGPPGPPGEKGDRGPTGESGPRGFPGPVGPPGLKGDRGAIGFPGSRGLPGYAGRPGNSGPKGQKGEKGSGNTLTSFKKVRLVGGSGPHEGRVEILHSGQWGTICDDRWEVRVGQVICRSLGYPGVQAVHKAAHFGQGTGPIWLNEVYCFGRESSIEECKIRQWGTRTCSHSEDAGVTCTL

[6] = biological target: T3, mouse MSR1 extracellular domain expressed with a N-terminal nonahistidine tag (His9-mMSR1); R&D Systems, Cat … (mouse, UniProt P30204 79-458); assay: BLI Octet, 25 C, antibody captured; kd fixed, no dissociation seen
T3 construct: extracellular domain; not shown: N-terminal nonahistidine tag
T3 sequence (looked up): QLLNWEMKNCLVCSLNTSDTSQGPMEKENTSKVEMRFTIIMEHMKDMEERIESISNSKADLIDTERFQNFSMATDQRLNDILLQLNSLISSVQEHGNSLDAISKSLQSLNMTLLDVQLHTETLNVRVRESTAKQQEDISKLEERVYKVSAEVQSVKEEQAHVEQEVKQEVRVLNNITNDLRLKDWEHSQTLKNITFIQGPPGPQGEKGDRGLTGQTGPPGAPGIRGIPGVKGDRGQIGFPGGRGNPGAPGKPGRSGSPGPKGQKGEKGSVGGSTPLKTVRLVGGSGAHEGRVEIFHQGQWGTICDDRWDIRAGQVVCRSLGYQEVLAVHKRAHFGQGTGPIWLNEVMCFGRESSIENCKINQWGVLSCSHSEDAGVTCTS

[7] = biological target: T4, human MSR1 extracellular domain expressed with a N-terminal nonahistidine tag (His9-hMSR1); R&D Systems, Cat … (human, UniProt P21757 77-451); assay: SPR Biacore, 25 C, antibody captured; kd fixed, no dissociation seen
T4 construct: extracellular domain; also called His-hMSR1; 9xHis-hMSR1; not shown: N-terminal nonahistidine tag
T4 sequence (looked up): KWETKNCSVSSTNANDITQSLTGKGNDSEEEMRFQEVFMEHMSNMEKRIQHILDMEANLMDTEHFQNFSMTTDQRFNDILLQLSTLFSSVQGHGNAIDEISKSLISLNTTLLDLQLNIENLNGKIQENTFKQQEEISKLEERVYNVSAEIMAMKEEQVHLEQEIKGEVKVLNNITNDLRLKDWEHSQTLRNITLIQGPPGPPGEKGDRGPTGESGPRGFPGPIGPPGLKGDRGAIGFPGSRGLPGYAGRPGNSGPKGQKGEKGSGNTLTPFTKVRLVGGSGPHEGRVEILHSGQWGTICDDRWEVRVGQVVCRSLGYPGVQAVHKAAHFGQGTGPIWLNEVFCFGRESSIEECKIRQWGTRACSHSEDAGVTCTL

[8] = biological target: T4, human MSR1 extracellular domain …; assay: SPR Biacore, 37 C, antibody captured; kd fixed, no dissociation seen
Description: (§3) Binding affinities and kinetic constants of human anti-MSR1 antibodies for different MSR1 reagents were determined by real-time surface plasmon resonance (Biacore 4000). All binding studies were performed in 10 mM HEPES, 150 mM NaCl, 3 mM EDTA, and 0.05% v/v Surfactant Tween-20, pH 7.4 (HBS-ET) running buffer at 25° C. and 37° C.
(§4) The association rate (kₐ) and dissociation rate (kd) were determined by fitting the real-time binding sensorgrams to a 1:1 binding model with mass transport limitation using Scrubber 2.0c curve-fitting software. Binding dissociation equilibrium constant (KD) and dissociative half-life (t½) were calculated from the kinetic rates as:

[9] = biological target: T2, monkey MSR1 extracellular domain …; assay: as above
Description: as §3, §4

[10] = biological target: T2, monkey MSR1 extracellular domain …; assay: SPR Biacore, 25 C, antibody captured; kd fixed, no dissociation seen
Description: as §3, §4

[11] = biological target: T4, human MSR1 extracellular domain …; assay: BLI Octet, 25 C, antibody captured
Description: (§5) Binding affinities and kinetic constants of human anti-MSR1 antibodies for different MSR1 reagents were determined using a real time, label-free bio-layer interferometry assay on an OCTET® HTX biosensor platform (Pall FortéBio Corp., Menlo Park, Calif.). The experiment was performed at 25° C. in 10 mM HEPES, 150 mM NaCl, 3 mM EDTA, 0.05% v/v Surfactant Tween-20, and 1 mg/mL BSA, pH7.4 (HBS-EBT) buffer with the plate shaking at the speed of 1000 rpm. […] The anti-MSR1 monoclonal antibodies were captured by dipping either anti-human Fc (AHC) or anti-mouse Fc (AMC) Octet biosensors in wells containing 5 pg/mL or 10 pg/mL of anti-MSR1 monoclonal antibody for 45-90 seconds. […] The binding of different MSR1 reagents to the captured anti-MSR1 monoclonal antibody was measured for 4 minutes and the dissociation of monoclonal antibody bound MSR1 reagent was monitored for 8-10 minutes in HBS-EBT buffer.
as §4

[12] = biological target: T2, monkey MSR1 extracellular domain …; assay: BLI Octet, 25 C, antibody captured
Description: as §5, §4

[13] = biological target: T3, mouse MSR1 extracellular domain …; assay: BLI Octet, 25 C, antibody captured

B1: H1H21234N-N297Q (antibody, V domains shown)
VH: QVQLQESGPGLVKPSETLSLTCTVTGGSISRNYWSWIRQPPGKGLEWIGYIYYSGSIDYNPSLKSRVTISVDTSKNQFSLKLSSMTAADTAVYYCARDRWNWKYGMDVWGQGTTVIVSS
VL: EIVLTQSPGTLSLSPGERATLSCRASQTVRNNYLAWYHQKPGQAPRLLIYGASSRATGIPDRFSGSGSGTDFTLTISRLEPEDFTVYYCHQYGNSPWTFGQGTKMEIKR
notes: Human IgG1 Fc with N297Q (EU numbering)
% Blocking [1]: 75% | % Blocking [2]: -27% | % Blocking [3]: 49%

B2: H2aM25695N (antibody, mouse IgG2a, V domains shown)
VH: B1 VH with D58N, T73M, S83N, M85V
VL: B1 VL with N32S, T85A, H90Q, N94S, P96Y
notes: Human variable domains with mouse IgG2a Fc
% Blocking [1]: 65% | % Blocking [2]: 16% | % Blocking [3]: 96%

B3: H1H21234N (antibody, V domains shown)
VH: B1 VH
VL: B1 VL
notes: Original human IgG1 Fc
% Blocking [1]: 70% | % Blocking [2]: 21% | % Blocking [3]: 98%

B4: H2aM21228N (antibody, mouse IgG2a, V domains shown)
VH: VQLVESGGGLVQPGGSLRLSCAASGFTFSDHYMDWVRQAPGKGLEWVGRTRNKANSHTTEYAASVSGRFTISRDDSKNSLYLQMNSLKTEDTAVYYCTRAGIIGTLFDYWGQGTLVTVSS
VL: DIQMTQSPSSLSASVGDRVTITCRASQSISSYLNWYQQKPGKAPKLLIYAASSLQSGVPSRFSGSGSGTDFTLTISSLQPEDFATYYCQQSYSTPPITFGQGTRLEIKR
notes: as for B2
% Blocking [1]: -32% | % Blocking [4]: 41% | % Blocking [2]: -1%

B5: H2aM21229N (antibody, mouse IgG2a, V domains shown)
VH: EVQLVESGGGLVKPGGSLRLSCAASGFTFSRYSMNWVRQAPGKGLEWVSSISSSSSYIYYGDTVKGRFTISRDNAKKSLYLQMNSLRAEDTAVYYCVRDRGQLVLYFDYWGQGTLVTVSS
VL: DIQMTQSPASLSTSIRDRVTITCRASLSISSFLNWFQQRPGKAPKLLIYVASNLQSGVPSRFSDSGSGTDFTLTISSLQPEDFATYYCQQNYSTPPITFGQGTRLEIK
notes: as for B2
% Blocking [1]: -11% | % Blocking [4]: 38% | % Blocking [2]: 3%

B6: H2aM21235N (antibody, mouse IgG2a, V domains shown)
VH: EVQLVESGGGLVQPGGSLRLSCAASGFTFSDHYMDWVRQAPGKGLEWVGRTRNKANSYTTEYAASVSGRFTISRDDSKNSLYLQMNSLKTEDTAVYYCTRAGIIGTLFDYWGQGTLVTVSS
VL: DIQMTQSPSSLSASVGDRVTITCRASQIIGRYLNWFQQKPGKVPKLLIYAASSLQRGVPSRFSGSGSGTDFTLTISSLQPEDFATYYCQQSYNTPPITFGQGTRLEIKR
notes: as for B2
% Blocking [1]: 24% | % Blocking [4]: -4% | % Blocking [2]: -24%

B7: H1H21234N-N297Q (antibody, V domains shown)
VH: B1 VH
VL: B1 VL
notes: Human IgG1 Fc with N297Q point mutation (EU numbering)
Kd [5]: 0.0466 nM | koff [5]: 1.95e-05 s⁻¹ | kon [5]: 408000 M⁻¹ s⁻¹ | t½ [5]: 593 min | Kd [6]: ≤ 1.31 nM | koff [6]: ≤ 5e-05 s⁻¹ | kon [6]: 38200 M⁻¹ s⁻¹ | t½ [6]: 231 min | Kd [7]: ≤ 0.0201 nM | koff [7]: ≤ 1e-05 s⁻¹ | kon [7]: 497000 M⁻¹ s⁻¹ | t½ [7]: 1160 min | Kd [8]: 0.0127 nM | koff [8]: ≤ 1e-05 s⁻¹ | kon [8]: 787000 M⁻¹ s⁻¹ | t½ [8]: 1160 min | Kd [9]: 0.0133 nM | koff [9]: ≤ 1e-05 s⁻¹ | kon [9]: 750000 M⁻¹ s⁻¹ | t½ [9]: 1160 min

B8: H1H21234N (antibody, V domains shown)
VH: B1 VH
VL: B1 VL
notes: Original human IgG1 Fc (no N297 mutation)
Kd [6]: ≤ 1.09 nM | koff [6]: ≤ 5e-05 s⁻¹ | kon [6]: 46000 M⁻¹ s⁻¹ | t½ [6]: 231 min | Kd [7]: ≤ 0.0166 nM | koff [7]: ≤ 1e-05 s⁻¹ | kon [7]: 604000 M⁻¹ s⁻¹ | t½ [7]: 1160 min | Kd [10]: ≤ 0.0298 nM | koff [10]: ≤ 1e-05 s⁻¹ | kon [10]: 336000 M⁻¹ s⁻¹ | t½ [10]: 1160 min | Kd [8]: 0.0148 nM | koff [8]: ≤ 1e-05 s⁻¹ | kon [8]: 676000 M⁻¹ s⁻¹ | t½ [8]: 1160 min | Kd [9]: 0.0138 nM | koff [9]: ≤ 1e-05 s⁻¹ | kon [9]: 726000 M⁻¹ s⁻¹ | t½ [9]: 1160 min

B9: H2aM21229N (antibody, V domains shown)
VH: B5 VH
VL: B5 VL
notes: as for B2
Kd [11]: 0.7 nM | koff [11]: 0.00021 s⁻¹ | kon [11]: 300000 M⁻¹ s⁻¹ | t½ [11]: 55 min | Kd [12]: 16.4 nM | koff [12]: 0.00222 s⁻¹ | kon [12]: 135000 M⁻¹ s⁻¹ | t½ [12]: 5 min | binding result [13]: no binding (tested: 100 nM)

B10: H2aM21235N (antibody, V domains shown)
VH: B6 VH
VL: B6 VL
notes: Human variable domains with mouse IgG2a Fc; tied by the numerical identifier
Kd [11]: 0.378 nM | t½ [11]: 252 min | Kd [12]: 0.612 nM | t½ [12]: 184 min | binding result [13]: no binding (tested: 100 nM)
